First the molecules themselves.
T1: full-length human GIPR with an N-terminal FLAG tag, overexpressed on HEK-293T cells (human, UniProt P48546 22-466)
T1 sequence (looked up): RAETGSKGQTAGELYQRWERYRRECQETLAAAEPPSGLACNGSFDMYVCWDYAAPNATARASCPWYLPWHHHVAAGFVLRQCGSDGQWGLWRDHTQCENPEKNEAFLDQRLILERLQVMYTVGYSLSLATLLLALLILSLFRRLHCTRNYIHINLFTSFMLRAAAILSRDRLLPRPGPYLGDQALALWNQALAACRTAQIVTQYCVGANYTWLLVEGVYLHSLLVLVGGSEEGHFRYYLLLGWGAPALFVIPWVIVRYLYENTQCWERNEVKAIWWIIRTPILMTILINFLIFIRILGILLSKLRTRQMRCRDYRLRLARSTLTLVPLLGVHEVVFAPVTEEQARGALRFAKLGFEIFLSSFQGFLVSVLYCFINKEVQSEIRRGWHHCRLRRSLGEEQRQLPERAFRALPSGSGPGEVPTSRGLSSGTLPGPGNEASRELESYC

B1: Compound 183 (peptide)
peptide: Me-Y[Aib]EGTFISDYSI[Aib]LDR[Aib]AQ[Aib]K([AEEA-AEEA-γGlu-γGlu-C15 diacid])FVNWLLAQSPG-OH
B2: Compound 185 (peptide)
peptide: Me-Y[Aib]EGTFISDYSI[Aib]LDR[Aib]KQ[Aib]DFVNWLLAQSPG-OH
modifications: not fully specified (residues 1, 18); printed as Me-Tyr-Aib-Glu-Gly-Thr-Phe-Ile-Ser-Asp-Tyr-Ser-Ile-Aib-Leu-Asp-Arg-Aib-Lys(R)-Gln-Aib-Asp-Phe-Val-Asn-Trp-Leu-Leu-Ala-Gln-Ser-Pro-Gly-OH
B3: Compound 206 (peptide)
peptide: Me-YGEGTFISDYSIALDR[Aib]AQ[Aib]K([2OEG-γGlu-γGlu-C15 diacid])FVNWLLAQKG-OH
B4: Compound 162 (peptide)
peptide: Me-Y[Aib]EGTFISDYSIALDR[Aib]K([AEEA-AEEA-γGlu-γGlu-C15 diacid])Q[Aib]DFVNWLLAQRG-OH
B5: Compound 190 (peptide)
peptide: Me-Y[Aib]EGTFISDYSIALDR[Aib]HQ[Aib]NFVNWK([γGlu-C16])LAQR-NH2
B6: Compound 175 (peptide)
peptide: Me-Y[Aib]EGTFISDYSI[Aib]LDR[Aib]AQ[Aib]K([AEEA-AEEA-γGlu-γGlu-C15 diacid])FVNWLLAQKG-OH
B7: Compound 164 (peptide)
peptide: YXEGTFISDYSIALDRXAQXNFVNWLLAQSPSSGAPPPS
modifications: N-terminal Me (Me-Tyr1); Aib at 2, 20; Km = Lys(R) at 17, linker printed GS (read as G5 = GGGGG), lipid C15DA (C15 diacid); C-terminal NH2
B8: Compound 187 (peptide)
peptide: B7 peptide with A13X, L14X
modifications: N-terminal Me (Me-Tyr1); Aib at 2, 13, 17, 20; Km = Lys(R) at 14, linker printed GS (read as G5 = GGGGG), lipid C15DA (C15 diacid); C-terminal OH
B9: Compound 166 (peptide)
peptide: B7 peptide with N21D
modifications: N-terminal Me (Me-Tyr1); Aib at 2, 20; Km = Lys(R) at 17, linker printed GS (read as G5 = GGGGG), lipid C15DA (C15 diacid); C-terminal OH
B10: Compound 165 (peptide)
peptide: B7 peptide with N21D, S30R
modifications: N-terminal Me (Me-Tyr1); Aib at 2, 20; Km = Lys(R) at 17, linker printed GS (read as G5 = GGGGG), lipid C15DA (C15 diacid); C-terminal OH
B11: Compound 167 (peptide)
peptide: B7 peptide with N21D
modifications: N-terminal Me (Me-Tyr1); Aib at 2, 20; Km = Lys(R) at 17, linker printed GS (read as G5 = GGGGG), lipid C15DA (C15 diacid); C-terminal NH2
B12: Compound 205 (peptide)
peptide: Me-Y[Aib]EGTFISDYSIALDR[Aib]AQ[Aib]K([2OEG-γGlu-γGlu-C15 diacid])FVNWLLAQKG-NH2
B13: Compound 161 (peptide)
peptide: Me-Y[Aib]EGTFISDYSIALDR[Aib]K([AEEA-AEEA-γGlu-γGlu-C15 diacid])Q[Aib]NFVNWLLAQSG-OH
B14: Compound 184 (peptide)
peptide: Me-Y[Aib]EGTFISDYSIALDR[Aib]AQ[Aib]K([AEEA-AEEA-γGlu-γGlu-C15 diacid])FVNWLLAQSPG-OH
B15: Compound 192 (peptide)
peptide: YGEGTFISDYSIAK([AEEA-AEEA-γGlu-C16 diacid])DRIHQQNFVNWLLAQK
B16: Compound 209 (peptide)
peptide: Me-Y[Aib]EGTFISDYSIALDR[Aib]AQ[Aib]K([2OEG-γGlu-γGlu-C15 diacid])FVNWLLAQKPSSGAPPPS-NH2
B17: Compound 201 (peptide)
peptide: Me-Y[Aib]EGTFISDYSIALDR[Aib]AQ[Aib]K([2OEG-γGlu-γGlu-γGlu-C15 diacid])FVNWLLAQKG-OH
B18: Compound 168 (peptide)
peptide: YXEGTFISDYSIALDRXAQXDFVNWLLAQSG
modifications: N-terminal Me (Me-Tyr1); Aib at 2, 20; Km = Lys(R) at 17, linker printed GS (read as G5 = GGGGG), lipid C15DA (C15 diacid); C-terminal OH
B19: Compound 181 (peptide)
peptide: B18 peptide with L14X, S30X
modifications: N-terminal Me (Me-Tyr1); Aib at 2, 17, 20; Km = Lys(R) at 14, linker printed GS (read as G5 = GGGGG), lipid C15DA (C15 diacid); K(Ac) (N-epsilon-acetyllysine) at 30; C-terminal OH
B20: Compound 172 (peptide)
peptide: B18 peptide with L14X
modifications: N-terminal Me (Me-Tyr1); Aib at 2, 17, 20; Km = Lys(R) at 14, linker printed GS (read as G5 = GGGGG), lipid C15DA (C15 diacid); C-terminal OH
B21: Compound 177 (peptide)
peptide: B18 peptide with L14X, R16S, S30K
modifications: N-terminal Me (Me-Tyr1); Aib at 2, 17, 20; Km = Lys(R) at 14, linker printed GS (read as G5 = GGGGG), lipid C15DA (C15 diacid); C-terminal OH
B22: Compound 188 (peptide)
peptide: Y[Aib]EGTFISDYSIALDR[Aib]AQ[Aib]K([AEEA-AEEA-γGlu-γGlu-C15 diacid])FVNWLLAQKG-OH
modifications: not fully specified (residue 1)
B23: Compound 180 (peptide)
peptide: Me-Y[Aib]EGTFISDYSIAK([Gly-Gly-Gly-Gly-γGlu-C15 diacid])DR[Aib]AQ[Aib]DFVNWLLAQKG-OH
B24: Compound 203 (peptide)
peptide: [NMeY][Aib]EGTFISDYSI[Aib]LDR[Aib]AQ[Aib]K([AEEA-AEEA-γGlu-γGlu-Palmitoyl])FVNWLLAQRG-OH
modifications: not fully specified (N-terminus)
B25: Compound 169 (peptide)
peptide: Me-Y[Aib]EGTFISDYSIALDR[Aib]KQ[Aib]DFVNWLLAQRG-OH
modifications: not fully specified (residues 1, 18)
B26: Compound 171 (peptide)
peptide: Me-Y[Aib]EGTFISDYSIALDR[Aib]K([AEEA-AEEA-γGlu-γGlu-C15 diacid])Q[Aib]NFVNWLLAQRG-OH
B27: Compound 182 (peptide)
peptide: YXEGTFISDYSIXXDRXAQXDFVNWLLAQSPG
modifications: N-terminal Me (Me-Tyr1); Aib at 2, 13, 17, 20; Km = Lys(R) at 14, linker printed GS (read as G5 = GGGGG), lipid C15DA (C15 diacid); C-terminal OH
B28: Compound 186 (peptide)
peptide: B27 peptide with X14L
modifications: N-terminal Me (Me-Tyr1); Aib at 2, 13, 20; Km = Lys(R) at 17, linker printed GS (read as G5 = GGGGG), lipid C15DA (C15 diacid); C-terminal OH
B29: Compound 173 (peptide)
peptide: Me-Y[Aib]EGTFISDYSIAKDR[Aib]AQ[Aib]DFVNWLLAQRG-OH
modifications: not fully specified (residues 1, 14)
B30: Compound 196 (peptide)
peptide: Me-Y[Aib]EGTFISDYSIAK([AEEA-AEEA-γGlu-C16 diacid])DRIAQ[Aib]NFVNWLLAQK
B31: Compound 163 (peptide)
peptide: Me-Y[Aib]EGTFISDYSIALDR[Aib]K([AEEA-AEEA-γGlu-γGlu-C15 diacid])Q[Aib]DFVNWLLAQSG-OH
B32: Compound 170 (peptide)
peptide: Me-Y[Aib]EGTFISDYSIALDR[Aib]KQ[Aib]DFVNWLLAQSG-OH
modifications: not fully specified (residues 1, 18)

Residue numbers refer to the chain shown, from its start. Starred links: 1 amine or outer side, 2 acyl side, 3 side chain; linkers in the order of their positions; H or OH if unused. Non-standard residues stand in square brackets, D forms with d. Groups on a side chain read outwards from the residue. No end group written: not given here. *: point of attachment. C16 diacid = O=C(O)CCCCCCCCCCCCCCC(=O)*; C15 diacid = O=C(O)CCCCCCCCCCCCCC(=O)*; γGlu = O=C(O)[C@H](CCC(=O)[*:2])N[*:1]; NMeY = CN[C@@H](Cc1ccc(O)cc1)C(=O)O; Palmitoyl = CCCCCCCCCCCCCCCC(=O)*; AEEA = NCCOCCOCC(=O)O; Aib = CC(C)(N)C(=O)O; C16 = lipid C16

One assay concerns the target full-length human GLP-1R with an N-terminal FLAG tag, overexpressed on HEK-293T cells (human, UniProt P43220 24-463). Description: cell-based or functional assay.
In the case of B1, the “Human GLP1R cAMP HEK293T EC50” value turned out to be 89.1 nM.
On to B2, for which the “Human GLP1R cAMP HEK293T EC50” value was over 1000 nM.
The same measure, in the same setting: the same measure for B3: 145 nM; for B4: 513 nM; for B5: 1000 nM.
The same measure, in the same setting: the same measure for B6: 44.7 nM.
On the same count and under the same terms, the same measure for B7: 9.77 nM; for B8: 51.3 nM; for B9: 89.1 nM.
With B10, the “Human GLP1R cAMP HEK293T EC50” value was 85.1 nM.
Same read-out and setting: the same measure for B11: 41.7 nM; for B12: 13.5 nM; for B13: over 1000 nM.
On the same count and under the same terms, the same measure for B14: over 1000 nM; for B15: 741 nM; for B16: 479 nM.
Still for that read-out and setting: as for B17, the figure is 9.12 nM; as for B18, 17.4 nM.
B19: the “Human GLP1R cAMP HEK293T EC50” value turned out to be 162 nM.
The same measure, in the same setting: the same measure for B20: 64.6 nM.
Still for that read-out and setting: as for B21, the figure is 1000 nM; as for B22, 22.9 nM.
The same measure, in the same setting: the same measure for B23: over 1000 nM; for B24: 2.63 nM; for B25: over 1000 nM.
For B26, the “Human GLP1R cAMP HEK293T EC50” value was over 1000 nM.
Same read-out and setting: as for B27, the figure is 155 nM; as for B28, 26.9 nM; as for B29, over 1000 nM.
The same measure, in the same setting: the same measure for B30: 692 nM; for B31: over 1000 nM; for B32: over 1000 nM.

The next assay addresses T1, full-length human GIPR with an …. In words: cell-based or functional assay.
As for B1, the “Human GIPR cAMP, HEK293T EC50” value amounted to 0.5 pM.
As for B2, the “Human GIPR cAMP, HEK293T EC50” value turned out to be 0.4 pM.
On the same count and under the same terms, the same measure for B3: 1.3 pM; for B4: 0.2 pM.
On the same count and under the same terms, as for B5, the figure is 15.8 pM; as for B6, 0.4 pM; as for B7, 0.2 pM.
Consider B8, for which the “Human GIPR cAMP, HEK293T EC50” value was found to be 0.2 pM.
Same read-out and setting: as for B9, the figure is 0.4 pM.
Turning to B10, the “Human GIPR cAMP, HEK293T EC50” value stood at 0.4 pM.
Still for that read-out and setting: the same measure for B11: 0.4 pM; for B12: 0.2 pM; for B13: 0.3 pM.
Still for that read-out and setting: the same measure for B14: 0.3 pM; for B15: 148 pM.
As for B16, the “Human GIPR cAMP, HEK293T EC50” value stood at 0.3 pM.
Turning to B17, the “Human GIPR cAMP, HEK293T EC50” value was 0.2 pM.
The same measure, in the same setting: the same measure for B18: 0.3 pM; for B19: 0.4 pM.
On the same count and under the same terms, the same measure for B20: 0.4 pM; for B21: 0.2 pM; for B22: 0.3 pM.
On the same count and under the same terms, as for B23, the figure is 0.3 pM; as for B24, 3 pM; as for B25, 0.6 pM.
For B26, the “Human GIPR cAMP, HEK293T EC50” value came to 0.5 pM.
The same measure, in the same setting: as for B27, the figure is 0.2 pM.
With B28, the “Human GIPR cAMP, HEK293T EC50” value was 0.3 pM.
Same read-out and setting: as for B29, the figure is 0.5 pM; as for B30, 0.2 pM; as for B31, 0.3 pM.
Same read-out and setting: as for B32, the figure is 0.4 pM.

The values above are taken from US20220227830A1, “QD DOSING OF GIP RECEPTOR AGONIST PEPTIDE COMPOUNDS AND USES THEREOF” (Takeda Pharmaceutical Company Limited, priority 2020, published 2022).
